Results as given in PMC8545111, “Molecular Basis of the Versatile Regulatory Mechanism of HtrA-Type Protease AlgW from Pseudomonas aeruginosa” (mBio, 2021).

Test system: AlgW and mutants
Assay: Apparent activation parameters of AlgW and mutants (peptide agonist gradient)
Format: biochemical, Pseudomonas aeruginosa
Details: peptide activator (decapeptide) gradient, substrate Abz-VLAG-pNA, Michaelis-Menten fit, means of three independent determinations; for Maximal cleavage activity: Tris pH 7.5, 150 mM NaCl, 37°C; for EC50: read-out: Half-maximal activation concn
Text: For the enzyme mechanism of AlgW (30–389) and mutants, two internally quenched fluorescent peptide substrates incorporating the peptidase cleavage site of MucA/MucB, Abz-VLAG-pNA and Abz-TVAW-pNA, were designed and synthesized (GL Biochem Shanghai Ltd., China). In the intact peptide, the fluorescence of the anthraniloyl group is quenched by the P-nitroaniline (Abz is a fluorogenic group, and pNA is a quencher of fluorescence). This quenched fluorescence is liberated upon cleavage of peptide by 200 nM AlgW and mutants (200/3 nM for trimer), resulting in increased fluorescence that can then be monitored fluorometrically. Prior to the assay, all enzyme preparations were incubated with 10 mM agonist peptides (WVF or SVRDELRWVF) for 30 min at room temperature. All assays were placed in a buffer containing 25 mM Tris (pH 7.5) and 150 mM NaCl at 37°C for 1 h, and the final assay volume was 100 μl. The fluorescent degradation products were monitored at 60-s intervals at fluorescence wavelength—λex = 310 nm, λem = 420 nm ([41]). All data points were representative of three independent determinations and were simulated with solid lines with the formula Y = Vmax · X^h/(Km ^h + X^h) or Y = Vmax · X^h/(Khalf^h + X^h) or the Michaelis-Menten formula (Y = Vmax · X/[Km + X]). Substrate versus velocity was used to determine Km and Vmax, and agonists versus velocity was used to determine the half-maximal activation concentration and maximum activation rate of agonists. The fitting and calculation of data were carried out using Prism 7 (GraphPad, CA, USA).

| Molecule | Maximal cleavage activity | EC50 |
| --- | --- | --- |
| AlgW-R374A (protein, left off: His6, C-terminal, state not stated) VGLPRQEVHVEQAPLLSRLQEGPVSYANAVSRAAPAVANLYTTKMVSKPSHPLFDDPMFRRFFGDNLPQQKRMESSLGSAVIMSAEGYLLTNNHVTAGADQIIVALRDGRETIAQLVGSDPETDLAVLKIDLKNLPAMTLGRSDGIRTGDVCLAIGNPFGVGQTVTMGIISATGRNQLGLNTYEDFIQTDAAINPGNSGGALVDAAGNLIGINTAIFSKSGGSQGIGFAIPTKLALEVMQSIIEHGQVIRGWLGVEVKALTPELAESLGLGETAGIVVAGVYRDGPAARGGLLPGDVILTIDKQEASDGRRSMNQVARTRPGQKISIVVLRNGQKVNLTAEVGLAPPPAPAPQQKQDGGE | 5.45 ± 0.68 µM/min |  |
| AlgW-R347A (protein, left off: His6, C-terminal, state not stated) VGLPRQEVHVEQAPLLSRLQEGPVSYANAVSRAAPAVANLYTTKMVSKPSHPLFDDPMFRRFFGDNLPQQKRMESSLGSAVIMSAEGYLLTNNHVTAGADQIIVALRDGRETIAQLVGSDPETDLAVLKIDLKNLPAMTLGRSDGIRTGDVCLAIGNPFGVGQTVTMGIISATGRNQLGLNTYEDFIQTDAAINPGNSGGALVDAAGNLIGINTAIFSKSGGSQGIGFAIPTKLALEVMQSIIEHGQVIRGWLGVEVKALTPELAESLGLGETAGIVVAGVYRDGPAARGGLLPGDVILTIDKQEASDGRRSMNQVAATRPGQKISIVVLRNGQKVNLTAEVGLRPPPAPAPQQKQDGGE | 63.5 ± 8.42 µM/min | 1850 ± 990 nM |
| AlgW-Y212A (protein, left off: His6, C-terminal, state not stated) VGLPRQEVHVEQAPLLSRLQEGPVSYANAVSRAAPAVANLYTTKMVSKPSHPLFDDPMFRRFFGDNLPQQKRMESSLGSAVIMSAEGYLLTNNHVTAGADQIIVALRDGRETIAQLVGSDPETDLAVLKIDLKNLPAMTLGRSDGIRTGDVCLAIGNPFGVGQTVTMGIISATGRNQLGLNTAEDFIQTDAAINPGNSGGALVDAAGNLIGINTAIFSKSGGSQGIGFAIPTKLALEVMQSIIEHGQVIRGWLGVEVKALTPELAESLGLGETAGIVVAGVYRDGPAARGGLLPGDVILTIDKQEASDGRRSMNQVARTRPGQKISIVVLRNGQKVNLTAEVGLRPPPAPAPQQKQDGGE | 39.46 ± 6.17 µM/min | 2120 ± 620 nM |
| AlgW-E151A (protein, left off: His6, C-terminal, state not stated) VGLPRQEVHVEQAPLLSRLQEGPVSYANAVSRAAPAVANLYTTKMVSKPSHPLFDDPMFRRFFGDNLPQQKRMESSLGSAVIMSAEGYLLTNNHVTAGADQIIVALRDGRETIAQLVGSDPATDLAVLKIDLKNLPAMTLGRSDGIRTGDVCLAIGNPFGVGQTVTMGIISATGRNQLGLNTYEDFIQTDAAINPGNSGGALVDAAGNLIGINTAIFSKSGGSQGIGFAIPTKLALEVMQSIIEHGQVIRGWLGVEVKALTPELAESLGLGETAGIVVAGVYRDGPAARGGLLPGDVILTIDKQEASDGRRSMNQVARTRPGQKISIVVLRNGQKVNLTAEVGLRPPPAPAPQQKQDGGE | 34.93 ± 1.87 µM/min | 2990 ± 560 nM |
| AlgW-L282A (protein, left off: His6, C-terminal, state not stated) VGLPRQEVHVEQAPLLSRLQEGPVSYANAVSRAAPAVANLYTTKMVSKPSHPLFDDPMFRRFFGDNLPQQKRMESSLGSAVIMSAEGYLLTNNHVTAGADQIIVALRDGRETIAQLVGSDPETDLAVLKIDLKNLPAMTLGRSDGIRTGDVCLAIGNPFGVGQTVTMGIISATGRNQLGLNTYEDFIQTDAAINPGNSGGALVDAAGNLIGINTAIFSKSGGSQGIGFAIPTKLALEVMQSIIEHGQVIRGWAGVEVKALTPELAESLGLGETAGIVVAGVYRDGPAARGGLLPGDVILTIDKQEASDGRRSMNQVARTRPGQKISIVVLRNGQKVNLTAEVGLRPPPAPAPQQKQDGGE | 13.24 ± 1.59 µM/min | 2760 ± 1190 nM |
| AlgW-D149A (protein, left off: His6, C-terminal, state not stated) VGLPRQEVHVEQAPLLSRLQEGPVSYANAVSRAAPAVANLYTTKMVSKPSHPLFDDPMFRRFFGDNLPQQKRMESSLGSAVIMSAEGYLLTNNHVTAGADQIIVALRDGRETIAQLVGSAPETDLAVLKIDLKNLPAMTLGRSDGIRTGDVCLAIGNPFGVGQTVTMGIISATGRNQLGLNTYEDFIQTDAAINPGNSGGALVDAAGNLIGINTAIFSKSGGSQGIGFAIPTKLALEVMQSIIEHGQVIRGWLGVEVKALTPELAESLGLGETAGIVVAGVYRDGPAARGGLLPGDVILTIDKQEASDGRRSMNQVARTRPGQKISIVVLRNGQKVNLTAEVGLRPPPAPAPQQKQDGGE | 8.16 ± 0.85 µM/min |  |
| AlgW-E266A (protein, left off: His6, C-terminal, state not stated) VGLPRQEVHVEQAPLLSRLQEGPVSYANAVSRAAPAVANLYTTKMVSKPSHPLFDDPMFRRFFGDNLPQQKRMESSLGSAVIMSAEGYLLTNNHVTAGADQIIVALRDGRETIAQLVGSDPETDLAVLKIDLKNLPAMTLGRSDGIRTGDVCLAIGNPFGVGQTVTMGIISATGRNQLGLNTYEDFIQTDAAINPGNSGGALVDAAGNLIGINTAIFSKSGGSQGIGFAIPTKLALAVMQSIIEHGQVIRGWLGVEVKALTPELAESLGLGETAGIVVAGVYRDGPAARGGLLPGDVILTIDKQEASDGRRSMNQVARTRPGQKISIVVLRNGQKVNLTAEVGLRPPPAPAPQQKQDGGE | 60.51 ± 5.07 µM/min | 1080 ± 500 nM |
| AlgW-W281A (protein, left off: His6, C-terminal, state not stated) VGLPRQEVHVEQAPLLSRLQEGPVSYANAVSRAAPAVANLYTTKMVSKPSHPLFDDPMFRRFFGDNLPQQKRMESSLGSAVIMSAEGYLLTNNHVTAGADQIIVALRDGRETIAQLVGSDPETDLAVLKIDLKNLPAMTLGRSDGIRTGDVCLAIGNPFGVGQTVTMGIISATGRNQLGLNTYEDFIQTDAAINPGNSGGALVDAAGNLIGINTAIFSKSGGSQGIGFAIPTKLALEVMQSIIEHGQVIRGALGVEVKALTPELAESLGLGETAGIVVAGVYRDGPAARGGLLPGDVILTIDKQEASDGRRSMNQVARTRPGQKISIVVLRNGQKVNLTAEVGLRPPPAPAPQQKQDGGE | 10.32 ± 1.51 µM/min | 1510 ± 720 nM |
| AlgW-R279A (protein, left off: His6, C-terminal, state not stated) VGLPRQEVHVEQAPLLSRLQEGPVSYANAVSRAAPAVANLYTTKMVSKPSHPLFDDPMFRRFFGDNLPQQKRMESSLGSAVIMSAEGYLLTNNHVTAGADQIIVALRDGRETIAQLVGSDPETDLAVLKIDLKNLPAMTLGRSDGIRTGDVCLAIGNPFGVGQTVTMGIISATGRNQLGLNTYEDFIQTDAAINPGNSGGALVDAAGNLIGINTAIFSKSGGSQGIGFAIPTKLALEVMQSIIEHGQVIAGWLGVEVKALTPELAESLGLGETAGIVVAGVYRDGPAARGGLLPGDVILTIDKQEASDGRRSMNQVARTRPGQKISIVVLRNGQKVNLTAEVGLRPPPAPAPQQKQDGGE | 26.87 ± 3.21 µM/min | 2190 ± 990 nM |
